Assay results published in patent US20090053184A1.

Tests used:
Assay in all cases: chromium release; transduced lymphocytes against T2 cells having HLA-A2 pulsed with 'NY-ESO-1 peptide'; which of the listed peptides not given; full-length, on cells
Conditions in all cases: chains Valpha:Vbeta
[1] = molecular target: T1, NY-ESO-1 peptide on HLA-A*02:01 (human)
T1 chain: SLLMWTTQC

[2] = molecular target: T2, NY-ESO-1 peptide on HLA-A*02:01 (human)
T2 chain: SLLMWTTQV

[3] = molecular target: T3, NY-ESO-1 peptide on HLA-A*02:01 (human)
T3 chain: SLLMWTTQCFLP

Measured: lowest peptide concentration that stimulated killing

B1: anti-NY-ESO-1 TCR (SEQ ID NOS: 6 and 8) (protein)
chain 1: SQQGEEDPQALSIQEGENATMNCSYKTSINNLQWYRQNSGRGLVHLILIRSNEREKHSGRLRVTLDTSKKSSSLLITASRAADTASYFCATDGAGKSTFGDGTTLTVKP
chain 2: DAGVIQSPRHEVTEMGQEVTLRCKPISGHDYLFWYRQTMMRGLELLIYFNNNVPIDDSGMPEDRFSAKMPNASFSTLKIQPSEPRDSAVYFCASTIGAQPQHFGDGTRLSIL
< 0.02 nM: all assays above
